Measured values published in paper PMC10397247.
Read-outs that look alike come from different tables or passages of the source.

T1: 4H2330-AA
T1 chain: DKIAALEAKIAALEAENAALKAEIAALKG

T2: 4H3165-AA
T2 chain: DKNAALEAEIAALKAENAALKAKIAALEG

T3: 4H3410-AA
T3 chain: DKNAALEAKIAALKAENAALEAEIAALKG

T4: 4H909-AA
T4 chain: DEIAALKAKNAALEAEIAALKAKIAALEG

T5: 4H2274-AA
T5 chain: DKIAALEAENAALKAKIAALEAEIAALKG

T6: 4H570-AA
T6 chain: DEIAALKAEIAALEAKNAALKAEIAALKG

T7: 4H850-AA
T7 chain: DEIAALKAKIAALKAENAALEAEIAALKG

T8: 4H3016-AA
T8 chain: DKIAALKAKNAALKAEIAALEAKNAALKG

T9: 4H485-AA
T9 chain: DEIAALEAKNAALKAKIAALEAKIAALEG

T10: 4H3130-AA
T10 chain: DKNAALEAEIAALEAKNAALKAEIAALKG

T11: 4H310-AA
T11 chain: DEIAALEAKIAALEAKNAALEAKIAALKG

T12: 4H_APH
T12 chain: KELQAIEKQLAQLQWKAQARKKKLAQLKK

T13: 4H458-AA
T13 chain: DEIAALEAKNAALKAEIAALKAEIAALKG

T14: 4H2865-AA
T14 chain: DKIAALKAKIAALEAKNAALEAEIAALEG

T15: 4H2698-AA
T15 chain: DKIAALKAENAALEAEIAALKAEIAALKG

T16: 4H536-AA
T16 chain: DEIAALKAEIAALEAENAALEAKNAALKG

T17: 4H891-AA
T17 chain: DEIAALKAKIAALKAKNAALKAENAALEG

T18: 4H745-AA
T18 chain: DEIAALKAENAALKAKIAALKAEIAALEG

T19: 4H3697-AA
T19 chain: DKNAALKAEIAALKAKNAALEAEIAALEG

T20: 4H3590-AA
T20 chain: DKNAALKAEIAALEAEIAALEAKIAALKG

T21: 4H3009-AA
T21 chain: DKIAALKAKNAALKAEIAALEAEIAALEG

T22: 4H2253-AA
T22 chain: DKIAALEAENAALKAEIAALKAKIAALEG

T23: 4H629-AA
T23 chain: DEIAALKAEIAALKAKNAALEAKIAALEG

T24: 4H930-AA
T24 chain: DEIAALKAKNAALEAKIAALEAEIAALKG

T25: 4H2725-AA
T25 chain: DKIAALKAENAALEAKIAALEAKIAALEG

T26: 4H797-AA
T26 chain: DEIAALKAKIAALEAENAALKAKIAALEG

T27: 4H_BCR
T27 chain: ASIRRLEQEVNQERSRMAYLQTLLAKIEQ

T28: 4H94-AA
T28 chain: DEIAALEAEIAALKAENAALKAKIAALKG

T29: 4H2438-AA
T29 chain: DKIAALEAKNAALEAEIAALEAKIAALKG

T30: 4H3865-AA
T30 chain: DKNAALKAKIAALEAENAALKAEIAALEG

T31: 4H2473-AA
T31 chain: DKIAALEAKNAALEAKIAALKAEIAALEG

T32: 4H710-AA
T32 chain: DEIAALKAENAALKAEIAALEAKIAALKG

T33: 4H2611-AA
T33 chain: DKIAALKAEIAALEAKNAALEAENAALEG

T34: 4H249-AA
T34 chain: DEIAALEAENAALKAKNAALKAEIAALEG

T35: 4H2774-AA
T35 chain: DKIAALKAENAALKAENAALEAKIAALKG

T36: 4H697-AA
T36 chain: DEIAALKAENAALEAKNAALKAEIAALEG

T37: 4H982-AA
T37 chain: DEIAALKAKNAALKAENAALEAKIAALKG

T38: 4H3718-AA
T38 chain: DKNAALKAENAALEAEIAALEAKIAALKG

T39: 4H3631-AA
T39 chain: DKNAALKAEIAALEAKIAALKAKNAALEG

T40: 4H3606-AA
T40 chain: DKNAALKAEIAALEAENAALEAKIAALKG


Key:
Assay in all cases: two-hybrid library CCmax;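 further: natural log of median RNA to DNA barcode read ratio; higher means stronger binding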
[1] = target: T1, 4H2330-AA; conditions: mean of both orientations
[2] = target: T2, 4H3165-AA
[3] = target: T3, 4H3410-AA; conditions: mean of both orientations
[4] = target: T4, 4H909-AA; conditions: mean of both orientations
[5] = target: T5, 4H2274-AA
[6] = target: T6, 4H570-AA; conditions: mean of both orientations
[7] = target: T7, 4H850-AA; conditions: mean of both orientations
[8] = target: T8, 4H3016-AA; conditions: mean of both orientations
[9] = target: GCN2_T; conditions: mean of both orientations
[10] = target: T9, 4H485-AA; conditions: mean of both orientations
[11] = target: T10, 4H3130-AA; conditions: mean of both orientations
[12] = target: T11, 4H310-AA
[13] = target: T12, 4H_APH
[14] = target: T13, 4H458-AA; conditions: mean of both orientations
[15] = target: T14, 4H2865-AA; conditions: mean of both orientations
[16] = target: T15, 4H2698-AA; conditions: mean of both orientations
[17] = target: T16, 4H536-AA; conditions: mean of both orientations
[18] = target: T17, 4H891-AA; conditions: mean of both orientations
[19] = target: T18, 4H745-AA; conditions: mean of both orientations
[20] = target: T19, 4H3697-AA; conditions: mean of both orientations
[21] = target: T20, 4H3590-AA
[22] = target: T21, 4H3009-AA; conditions: mean of both orientations
[23] = target: T22, 4H2253-AA
[24] = target: T23, 4H629-AA; conditions: mean of both orientations
[25] = target: T24, 4H930-AA; conditions: mean of both orientations
[26] = target: T25, 4H2725-AA; conditions: mean of both orientations
[27] = target: T26, 4H797-AA; conditions: mean of both orientations
[28] = target: T27, 4H_BCR; conditions: mean of both orientations
[29] = target: 4H_GCN4
[30] = target: T28, 4H94-AA; conditions: mean of both orientations
[31] = target: T29, 4H2438-AA; conditions: mean of both orientations
[32] = target: T30, 4H3865-AA; conditions: mean of both orientations
[33] = target: T31, 4H2473-AA; conditions: mean of both orientations
[34] = target: T32, 4H710-AA; conditions: mean of both orientations
[35] = target: T33, 4H2611-AA; conditions: mean of both orientations
[36] = target: T34, 4H249-AA; conditions: mean of both orientations
[37] = target: T35, 4H2774-AA; conditions: mean of both orientations
[38] = target: T36, 4H697-AA; conditions: mean of both orientations
[39] = target: T37, 4H982-AA; conditions: mean of both orientations
[40] = target: T38, 4H3718-AA; conditions: mean of both orientations
[41] = target: T39, 4H3631-AA
[42] = target: T40, 4H3606-AA; conditions: mean of both orientations

Chain of 4H_GCN4 (chain, as listed by the source): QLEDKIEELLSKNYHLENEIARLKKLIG

| interaction score [1] | interaction score [3] | interaction score [4] | interaction score [6] | interaction score [7] | interaction score [8] | interaction score [10] | interaction score [11] | interaction score [14] | interaction score [15] | interaction score [16] | interaction score [17] | interaction score [18] | interaction score [19] | interaction score [20] | interaction score [22] | interaction score [24] | interaction score [25] | interaction score [26] | interaction score [27] | other results | Binder |
| --- | --- | --- | --- | --- | --- | --- | --- | --- | --- | --- | --- | --- | --- | --- | --- | --- | --- | --- | --- | --- | --- |
| -1.41 | -0.247 | -1.36 | -0.556 | -0.784 | -0.959 | -0.799 | -0.837 | -0.706 | -0.751 | 0.136 | 1.04 | -1.56 | -1.3 | -0.69 | 1.33 | -1.12 | -1.18 | 0.284 | -1.08 | interaction score [2]: -1.48; interaction score ([5]; mean of both orientations): -0.953; interaction score [9]: -1.2; interaction score ([12]; mean of both orientations): -0.553; interaction score ([13]; mean of both orientations): -1.13; interaction score ([21]; mean of both orientations): 2.4; interaction score ([23]; mean of both orientations): -1.44; interaction score [28]: -1.56; interaction score [29]: -1.45; interaction score [30]: -0.994; interaction score [31]: 1.55; interaction score [32]: -1.52; interaction score [33]: -0.93; interaction score [34]: -0.564 | DENAALEAKIAALKAKIAALKAEIAALEG [4H1385-AA] |
| -1.37 | -0.738 | -1.36 | 0.298 | 1.29 | -1.84 | -1.46 | -0.637 | -1.65 | -1.68 | -1.09 | -1.73 | -1.64 | -1.25 | -1.21 | -1.64 | -1.63 | -1.25 | -1.77 | -1.41 | interaction score ([2]; mean of both orientations): -0.447; interaction score ([5]; mean of both orientations): -1.5; interaction score [35]: -1.57; interaction score ([12]; mean of both orientations): -1.28; interaction score [36]: -1.39; interaction score [37]: -1.46; interaction score ([21]; mean of both orientations): -1.51; interaction score ([23]; mean of both orientations): -1.52; interaction score [30]: 1.29; interaction score [31]: -1.65; interaction score [32]: -0.626; interaction score [33]: -1.45; interaction score [34]: -1.04 | DENAALKAEIAALKAENAALKAEIAALKG [4H1626-AA] |
| -1.84 | 0.438 | -1.05 | -0.319 | 0.681 | 0.156 | -0.612 | 0.0677 | -1.34 | 1.33 | -1.05 | -1.1 | -1.23 | -1.19 | 2.08 | -0.415 | 0.124 | -1.1 | -1.15 | -1.29 | interaction score ([2]; mean of both orientations): -0.754; interaction score [5]: -1.11; interaction score [38]: -1.71; interaction score [39]: -1.22; interaction score [35]: -0.194; interaction score [12]: -1.4; interaction score [40]: -1.33; interaction score ([21]; mean of both orientations): 0.23; interaction score ([23]; mean of both orientations): -1.49; interaction score [41]: -1.43; interaction score [42]: 1.65; interaction score [30]: -1.72; interaction score [31]: -0.434; interaction score [32]: 0.444; interaction score [33]: -2.06; interaction score [34]: -1.52 | DENAALEAEIAALKAKNAALEAKIAALKG [4H1142-AA] |
| -1.14 | -0.76 | -0.788 | -1.41 | -0.973 | -0.709 | -0.48 | -1.14 | 0.0604 | -1.42 | 0.72 | -1.37 | -1.7 | 0.647 | -1.65 | 0.841 | -1.74 | -1.04 | -0.468 | -1.07 | interaction score ([2]; mean of both orientations): -1.44; interaction score ([5]; mean of both orientations): -0.65; interaction score [9]: -1.56; interaction score [12]: -0.688; interaction score [13]: -1.1; interaction score [36]: -1.56; interaction score [37]: -0.645; interaction score [21]: -1.09; interaction score [23]: 2.28; interaction score [28]: -1.47; interaction score [29]: -1.12; interaction score [30]: -1.54; interaction score [31]: -0.259; interaction score [32]: -1.13; interaction score [33]: -1.02; interaction score [34]: 0.741 | DKIAALEAENAALKAEIAALKAKIAALEG [4H2253-AA] |
